In publication PMC12135382 (The Journal of Biological Chemistry, 2025):

Biological target: T1, GR W712A-LgBiT (human, UniProt P04150 1-777, W712A)
T1 sequence: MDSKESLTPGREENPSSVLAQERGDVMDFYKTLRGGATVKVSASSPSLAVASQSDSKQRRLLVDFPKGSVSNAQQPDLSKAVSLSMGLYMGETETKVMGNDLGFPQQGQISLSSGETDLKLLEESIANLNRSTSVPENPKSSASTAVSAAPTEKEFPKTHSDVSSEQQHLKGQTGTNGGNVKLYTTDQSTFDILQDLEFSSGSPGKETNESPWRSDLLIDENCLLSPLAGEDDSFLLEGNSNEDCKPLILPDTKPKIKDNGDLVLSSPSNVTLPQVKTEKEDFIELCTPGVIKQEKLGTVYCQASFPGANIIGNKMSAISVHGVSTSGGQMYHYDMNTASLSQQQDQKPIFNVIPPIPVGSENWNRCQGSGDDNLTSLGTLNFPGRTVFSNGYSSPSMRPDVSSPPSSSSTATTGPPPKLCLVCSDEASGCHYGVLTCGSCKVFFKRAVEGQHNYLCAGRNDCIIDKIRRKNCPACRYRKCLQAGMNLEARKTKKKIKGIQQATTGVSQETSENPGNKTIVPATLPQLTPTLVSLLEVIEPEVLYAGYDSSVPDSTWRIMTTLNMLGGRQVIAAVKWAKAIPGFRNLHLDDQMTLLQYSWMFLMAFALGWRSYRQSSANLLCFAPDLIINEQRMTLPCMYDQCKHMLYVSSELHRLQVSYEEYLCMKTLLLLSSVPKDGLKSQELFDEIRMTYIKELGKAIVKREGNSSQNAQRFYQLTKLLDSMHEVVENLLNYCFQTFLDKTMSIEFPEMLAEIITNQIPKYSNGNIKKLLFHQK
Test: split reporter

B1: MR-SmBiT (mineralocorticoid receptor with C-terminal NanoBit small tag) (receptor)
chain: METKGYHSLPEGLDMERRWGQVSQAVERSSLGPTERTDENNYMEIVNVSCVSGAIPNNSTQGSSKEKQELLPCLQQDNNRPGILTSDIKTELESKELSATVAESMGLYMDSVRDADYSYEQQNQQGSMSPAKIYQNVEQLVKFYKGNGHRPSTLSCVNTPLRSFMSDSGSSVNGGVMRAVVKSPIMCHEKSPSVCSPLNMTSSVCSPAGINSVSSTTASFGSFPVHSPITQGTPLTCSPNVENRGSRSHSPAHASNVGSPLSSPLSSMKSSISSPPSHCSVKSPVSSPNNVTLRSSVSSPANINNSRCSVSSPSNTNNRSTLSSPAASTVGSICSPVNNAFSYTASGTSAGSSTLRDVVPSPDTQEKGAQEVPFPKTEEVESAISNGVTGQLNIVQYIKPEPDGAFSSSCLGGNSKINSDSSFSVPIKQESTKHSCSGTSFKGNPTVNPFPFMDGSYFSFMDDKDYYSLSGILGPPVPGFDGNCEGSGFPVGIKQEPDDGSYYPEASIPSSAIVGVNSGGQSFHYRIGAQGTISLSRSARDQSFQHLSSFPPVNTLVESWKSHGDLSSRRSDGYPVLEYIPENVSSSTLRSVSTGSSRPSKICLVCGDEASGCHYGVVTCGSCKVFFKRAVEGQHNYLCAGRNDCIIDKIRRKNCPACRLQKCLQAGMNLGARKSKKLGKLKGIHEEQPQQQQPPPPPPPPQSPEEGTTYIAPAKEPSVNTALVPQLSTISRALTPSPVMVLENIEPEIVYAGYDSSKPDTAENLLSTLNRLAGKQMIQVVKWAKVLPGFKNLPLEDQITLIQYSWMCLSSFALSWRSYKHTNSQFLYFAPDLVFNEEKMHQSAMYELCQGMHQISLQFVRLQLTFEEYTIMKVLLLLSTIPKDGLKSQAAFEEMRTNYIKELRKMVTKCPNNSGQSWQRFYQLTKLLDSMHDLVSDLLEFCFYTFRESHALKVEFPAMLVEIISDQLPKVESGNAKPLYFHRK
- reconstituted luciferase activity relative to WT receptors: 32%
